The test deals with T1, recombinant human RNF43 extracellular domain (human) (UniProt Q68DV7).
T1 sequence (looked up): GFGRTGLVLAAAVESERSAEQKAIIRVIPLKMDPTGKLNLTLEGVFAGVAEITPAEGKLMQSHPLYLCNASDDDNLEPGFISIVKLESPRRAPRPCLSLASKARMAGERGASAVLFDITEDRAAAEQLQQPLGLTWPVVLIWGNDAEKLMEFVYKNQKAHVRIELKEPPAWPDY
The experiment in a line: SPR Biacore 8K; antibody captured on Protein A; RNF43 ECD analyte; 25 C.

B1: RNF43-19 (antibody, V domains shown)
VH: QQQLEESGGGLVKPGGTLTLTCKASGIDFSTYYYMCWVRQAPGKGLEWIACIYTGDGNTYYASWAKGRFTISKTSSTTVTLQMTSLTAADTATYFCARDLAGSSYYSGYYFKLWGPGTLVTVSS
VL: DVVMTQTPASVSEPVGGTVTIKCQASQSIGSNLAWYQQKPGQPPKLLIYSVSNLASGVSSRFKGSRSGTEYTLTISDLECADAATYYSQSGYYGSTYAFGGGTEVVVK
As a reminder, the Kd is the free concentration of one partner at which half of the binding sites on the other are occupied at equilibrium, for simple one-to-one binding. Take B1: the Kd came to 34.2 nM.

Source of the values: US20240101708A1 (Genentech, published 2024).
